Biological target: ribosomal protein S6, P62754

B1: hp70S6K (delC/T389E), constitutively active form of human p70S6K protein (protein)
chain: MAGVFDIDLDQPEDAGSEDELEEGGQLNESMDHGGVGPYELGMEHCEKFEISETSVNRGPEKIRPECFELLRVLGKGGYGKVFQVRKVTGANTGKIFAMKVLKKAMIVRNAKDTAHTKAERNILEEVKHPFIVDLIYAFQTGGKLYLILEYLSGGELFMQLEREGIFMEDTACFYLAEISMALGHLHQKGIIYRDLKPENIMLNHQGHVKLTDFGLCKESIHDGTVTHTFCGTIEYMAPEILMRSGHNRAVDWWSLGALMYDMLTGAPPFTGENRKKTIDKILKCKLNLPPYLTQEARDLLKKLLKRNAASRLGAGPGDAGEVQAHPFFRHINWEELLARKVEPPFKPLLQSEEDVSQFDSKFTRQTPVDSPDDSTLSESANQVFLGFEYVAPSVLES
With B1 the “phosphorylation of ribosomal protein S6 (immunoperoxidase staining of SN sections after AAV transduction)” value was “hp70S6K(CA) induces a detectable increase in phosphorylation of ribosomal protein S6”.

Reference: US20140100265
